Tests used:
[1] = biological target: His-tagged human recombinant corneodesmosin (His-CDSN) (human) (UniProt Q15517); assay: SPR
[2] = biological target: T1, His-tagged human recombinant corneodesmosin (His-CDSN) (human, UniProt Q15517 33-529); assay: SPR
T1 sequence (looked up): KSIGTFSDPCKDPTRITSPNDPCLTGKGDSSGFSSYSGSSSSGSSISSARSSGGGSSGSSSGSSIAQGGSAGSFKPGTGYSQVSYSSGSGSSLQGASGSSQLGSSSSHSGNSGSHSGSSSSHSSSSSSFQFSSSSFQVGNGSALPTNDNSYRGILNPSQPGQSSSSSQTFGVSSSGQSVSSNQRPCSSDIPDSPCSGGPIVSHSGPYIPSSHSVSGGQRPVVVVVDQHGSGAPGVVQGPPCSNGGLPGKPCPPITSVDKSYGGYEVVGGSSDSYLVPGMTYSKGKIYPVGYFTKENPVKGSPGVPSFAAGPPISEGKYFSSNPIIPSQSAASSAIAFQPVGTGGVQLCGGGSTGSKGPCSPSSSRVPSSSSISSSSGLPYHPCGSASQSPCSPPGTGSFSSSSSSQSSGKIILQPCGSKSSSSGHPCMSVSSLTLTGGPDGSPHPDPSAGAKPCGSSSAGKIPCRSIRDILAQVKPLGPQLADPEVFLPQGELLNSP

Molecule	Kd [1]	Kd [2]
recombinant FnBPB N2N3 subdomains with the sequence of the AD08 protein (rFnBPBCC1N2N3) (domain or fragment)	49.1 µM	–
recombinant ClfB N2N3 subdomains with the sequence of the AD08 protein (rClfBCC1N2N3) (domain or fragment) AEPVVNAADAKGTNVNDKVTAKDFQLEKTTFDPNQSGNTFMAANFTVTGQVKSGDYFTAKLPDSVTGNGDVDYSNSNNTMPIADIVNDKNEVVAKATYDILTKTYTFVFTDYVNDKQNINGKFSLPLFTDRAKAPKSGTYDANINIADEMFNNKITYNYSSPIAGIDKPNGANISSQIIGVDTASGQNTYKQTVFVNPKQRVLGNTWVYIKGYQDKIEESSGKVSATDTKLRIFEVNDTSKLSDSYYADPNDSNLKEVTDQFKDKITYKYQNVASINFGDINKTYVVLVEGHYDKTGKNLKTQVIQENVDPATGKDYSIFGWNNENVVRYGGGSADGDSAVN	–	44.6 µM

Reference: article PMC7817190 (Proceedings of the National Academy of Sciences of the …, 2020)
